The text below walks through data of article PMC3587646, “Structural Characterization of a Recombinant Fusion Protein by Instrumental Analysis and Molecular Modeling” (PLoS ONE, 2013).

The target of this test is VEGF-A (UniProt P15692 1-395). Nature of the test: SPR; unpublished data of the authors; format and conditions not told. The settings on record: both partners purified. In general terms: In SPR one partner is held on a chip, and binding of the other changes the refractive index at the surface.

B1: Conbercept (Fc fusion)
chain: GRPFVEMYSEIPEIIHMTEGRELVIPCRVTSPNITVTLKKFPLDTLIPDGKRIIWDSRKGFIISNATYKEIGLLTCEATVNGHLYKTNYLTHRQTNTIIDVVLSPSHGIELSVGEKLVLNCTARTELNVGIDFNWEYPSSKHQHKKLVNRDLKTQSGSEMKKFLSTLTIDGVTRSDQGLYTCAASSGLMTKKNSTFVRVHEKPFVAFGSGMESLVEATVGERVRIPAKYLGYPPPEIKWYKNGIPLESNHTIKAGHVLTIMEVSERDTGNYTVILTNPISKEKQSHVVSLVVYVPP
modifications: seven N-glycosylation sites, all occupied (the N in the tryptic peptides 29-39 VTSPNITVTLK, 60-69 GFIISNATYK, 117-124 LVLNCTAR, 193-198 NSTFVR, 242-253 NGIPLESNHTIK, 267-281 DTGNYTVILTNPISK, 372-380 …); two inter-chain disulfide bonds at the Fc hinge
Usually Kd stands for a measure of binding affinity in units of concentration. Read a low Kd as tighter binding. In the case of B1, the Kd was found to be 0.429 nM. This lies in the sub-nanomolar range.
